# Test system: WT1 peptide presented by HLA-DP molecules on K562 transfectants
# Assay: Flow cytometric staining of K562 transfectants with WT1-specific mAb
# Format: cell-based, human
# Details: flow cytometry; for recognition of naturally processed WT1 peptide on K562/DP cells: K562/DP2 and K562/DP4, endogenous or ectopic WT1; for recognition of exogenously-pulsed WT1 peptide presented by DP molecules: K562 transfectants pulsed with WT1 peptide
# Description: FIGS. 5A-5S present data showing that WT1-specific mAbs bind to WTT peptide presented by HLA-DP molecules. FIGS. 5A-5B show binding of B7/21 (an anti-HLA-DP mAb) or WT1-specific mAbs to immobilized WT1 peptide or DP4/WT1 monomers as assessed by ELISA. m Abs were added to ELISA plate coated with WT1330-348 or CLIP (control) (FIG. 5A). mAbs were added to ELISA plate coated with DP4/WT1330-348 monomers or DP4/CLIP monomers (control) (FIG. 5B). The data shown represent the mean±SD of experiments performed in triplicates. Results are representative of two independent experiments. ns, not significant, *p<0.05, **p<0.01, ***p<0.001, ****p<0.0001 by two-way ANOVA with Bonferroni correction. […] Interaction strength was measured by a BLI binding assay. FIGS. 5F-5K show the indicated K562 transfectants pulsed with WT1330-348 or CLIP (control) and stained with WT1-specific mAb, 5H2, followed by PE-conjugated anti-mouse secondary Ab and flow cytometric analysis. FIGS. 5L-5S show the indicated K562 transfectants stained with WT1-specific mAb, 5H2, or isotype control mAb, followed by PE-conjugated anti-mouse secondary Ab and flow cytometric analysis.
# For surface staining, cells were pelleted and resuspended in a mAb master mix diluted in a PBS/2% FBS buffer. Cells were incubated at 4° C. for 15 minutes and washed prior to analysis. Monoclonal antibodies recognizing the following targets were used for surface staining: CD4 (300505, 1:40, BioLegend), CD8 (301007, 1:100, BioLegend), pan HLA class II (361703, 1:100, BioLegend), NGFR (345131, 1:40, BioLegend), CD25 (301007, 1:100, BioLegend), CD62L (304805, 1:25, BioLegend), CD45RA (304111, 1:10, BioLegend), PD-1 (329905, 1:40, BioLegend), Tim-3 (345007, 1:20, BioLegend). Mouse isotype controls were purchased from BioLegend. Biotinylated Protein-L was purchased from GenScript. For intracellular cytokine staining, TCR or CAR-T cells were stimulated with indicated target cells at an E:T ratio of 1:1. Brefeldin A (BioLegend) was added to the culture media after 2 hours, and the cells were further cultured for 4 hours. Following the surface marker staining, the cells were fixed and permeabilized using the Cytofix/Cytoperm Kit (BD Biosciences) and stained with FITC-anti-IL-2 (500305, 1:20, BioLegend), APC-anti-TNF-α (502913, 1:100, BioLegend), and PE-Cy7-anti-IFN-7 (506517, 1:200, BioLegend). The frequency of cytokine-producing cells within the CD8^+ or CD4^+ T cell population was determined by flow cytometric analysis. For intracellular WT1 staining, cells were fixed and permeabilized using the Cytofix/Cytoperm Kit (BD Biosciences) and stained with mouse anti-WT1 mAb (NB110-60011SS, 1:200, Novus Biologicals), followed by BV421-anti-mouse IgG (405317, 1:20, BioLegend). […]
molecule,measurement,setting,value
"5H2: mouse WT1-specific mAb raised against WT1330-348 peptide; VH SEQ ID NO: 37, VL SEQ ID NO: 38 (antibody, V domains shown, 5H2 - VH; 5H2 - VL) VH: EVQLQQSGAELVRPGALVKLSCKASGFNIKDYYMHWVKQRPEQGLEWIGWIDPENGNTIYDPKFQGKASITADTSSNTAYLQLSSLTSGDTAVYYCTRDGYYMVFAYWGQGTLVTVSA VL: DIQMTQSPSSLSASLGGKVTITCKASQDINKCIAWYKHKPGKGPRLLIHYTSILQPGIPSRFSGSGSGRDYSFSISNLEPEDIATYYCLQYDNLYTFGGGTKLEIK",recognition of naturally processed WT1 peptide on K562/DP cells,,can bind to K562/DP2 and K562/DP4 cells which express endogenous WT1
same,recognition of naturally processed WT1 peptide on K562/DP cells,listed as WT1-specific mAb,can recognize naturally processed WT1 peptide presented by HLA-DP2
same,recognition of exogenously-pulsed WT1 peptide presented by DP molecules,,can recognize exogenously-pulsed WT1330-348 presented by multiple DP molecules such as DP2 and DP5 in addition to DP4
same,recognition of exogenously-pulsed WT1 peptide presented by DP molecules,listed as WT1-specific mAb,can recognize exogenously-pulsed WT1328-348 peptide presented by different HLA-DP molecules
